According to the nanobody polyreactivity screen of Harvey et al. (2022):

Assay: yeast display, Sf9 membrane polyspecificity reagent, FACS + sequencing; frameworks hold sequencing errors
Method in brief: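 Nanobodies came from a synthetic yeast display library in Saccharomyces cerevisiae BJ5465, induced with galactose for 36–48 hours and stained for 1 hour at 4 °C with 10% biotinylated, detergent-solubilized Sf9 membrane reagent. Cells were enriched on streptavidin microbeads and then FACS-sorted, with low and high (top ~1%) gates set on anti-HA fluorescence for expression and streptavidin fluorescence for reagent binding. Each polyreactivity label reflects the gate a clone came from. Genes were amplified by colony PCR, sequenced by MiSeq 2 × 250 and filtered by CDR length.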

With “QVQLVESGGGLVQAGGSLRLSCAASGFIFTKYTMAWYRQAPGKERELVAAITGRGTSTSADSVKGRFTISRDNAKNTVYLQMNSLKPEDTAVYYCAAVGWFADFLFSDINGYYWGQGTQVTVSS” the “polyreactivity (PSR sort gate)” value was “low polyreactivity”.

In the case of “QVQLVESGGGLVQAGGSLRLSCAPSGSIFSYYDMGGYRQAPGKERELVAGISRGGSTNYADSVKGRFTISRDNAKNTVYLQMNSLKPEDTAVYYCNADQSSRTFPFRLSRRSWLYGYWGQGSQVTVSS”, the “polyreactivity (PSR sort gate)” value is reported as “low polyreactivity”.

With “QVQRVESGGGLVQAGGSLRLSCAASGITFRGYAMGWYRQAPGKERELVAAINSRGGSTYYADSVKGRFTISRDNAKNTVYLQMNSLKPEDTAVYYCATRSFGRMDYWGQGTQVTVSS” the “polyreactivity (PSR sort gate)” value was “high polyreactivity”.

For “QVQLVESGGGLVQAGGSHRLSCAASGSTFRVYAMGGYRQAPGKERELVARISITGGTTRYADSVKGRFTISRDNAKNTVYLQMNSLKPEDTAVYYCNADYDWYYWYLYKYPFDYWGQGTQVTVSS”, the “polyreactivity (PSR sort gate)” value was “low polyreactivity”.

With “QVQIVESGGGLVQAGGSLRISCAASGFTFRYYVMGWYRQAPGKEREFVAAISRSGGITYADSVKGRFTISRDNAKNTVYLQMNSLKPEDTAVYYCNAKSRTGYGRGDYWGQGTQVTVSS” the “polyreactivity (PSR sort gate)” value was “high polyreactivity”.

In the case of “QVQLVESGGGLVQAGGTLRLSCAASGFIFENYAMGWYRQAPGKERELVAAISSSGGSTYYADSVKGRFTISRDNAKNTVYLQMNSLKPEDTAVYYCAKDYAPSATKLHYWGQGTQVTVSS”, the “polyreactivity (PSR sort gate)” value is reported as “low polyreactivity”.

With “QVQLVESGGGLVQAGGSLRLSCAASGRTFGVYAMGWYRQAPGKERELVATITSVDRTNYADSVKGRFTISRDNAKNTVYLQMNSLKPEDTAVYYCAAVGRWPRYYYWGQGTQVTVSS” the “polyreactivity (PSR sort gate)” value was “high polyreactivity”.

For “QVQLVESGGGLVQAGGSLRLSCAASGFTFHKNAMGWYRQAPGKERELVAAISRSGGRTYYADSVKGRFTISRDNAKNTVYLQMNSLKPEDTAVYYCNATPLLWAGYDYWGQGTQVTVSS”, the “polyreactivity (PSR sort gate)” value was “high polyreactivity”.

With “QVQLVESGGGLVQAGGSLRLSCAASGSIFYTNAMGWYRQAPGKEREMVATITSSTGSTNYADSVKGRFTISRDNAKITVYLQMNSLKPEDTAVYYCAKRDGYWVYYQMDYWGQGTQVTVSS” the “polyreactivity (PSR sort gate)” value was “low polyreactivity”.

With “QVQLVESGGGLVQAGGSLRLSCSASGITFFTYAMGWYRQAPGKERELVAAISGSGGSTYYADSVKGRFTISRDNAKNTVYLQMNSLKPEDTADYYCAAEYTYASPYDYWGQGTQVTVSS” the “polyreactivity (PSR sort gate)” value was “low polyreactivity”.

With “QVQLVESGGGLVQAGGSLRLSCAASGYIFGSYTMGWYRQAPAKERELVAGISRRGGGTYYADSVKGRFTISRDNAKNTVYLQMNSLKPEDTAVYYCAAEVITIGLYRYGYWGQGTQVTVSS” the “polyreactivity (PSR sort gate)” value was “high polyreactivity”.

In the case of “QVQVVESGGGLVQAGGSLRLSCAASGLTYSYYTMGWYRQAPGKERELVAAITSSSGRTYYADSVKGRITISRDNAKNTVYLQMNSLKPEDTAVYYCAARWSPYDYWGQGTQVTVSS”, the “polyreactivity (PSR sort gate)” value is reported as “low polyreactivity”.

In the case of “QVQLEESGGGLVQAGGSLRLSCAASGSTFYANTMGSYRQAPGKERELVATISIDGSTNYADSVKGRFTISRDNAKNTVYLQMNTLKPEDTAVYYCNADVYSVLYGYWGQGTQVTVSS”, the “polyreactivity (PSR sort gate)” value is reported as “low polyreactivity”.

With “QFQLVESGGGLVQAGGSLRLSCSSSGSIFGAYDMGWYRQAPGKERELVAAITSVGSTYYADSVKGRFTISRDNAKNTVYLQMNSLKPEDTAVYDCAKRQWRPTYRYGYWGQGTQVTVSW” the “polyreactivity (PSR sort gate)” value was “low polyreactivity”.

For “QVQLVESGGGLVQAGGSLRLRCAASGRLFQSNAMGWYIQAPGKERELVSGINSDTSTYYADSVKGRFTISRDNAKNTVYLKMNSLKPDDTAVYYCNAGWDTYYWQSTEFDYWGQGTQVTVSS”, the “polyreactivity (PSR sort gate)” value was “low polyreactivity”.

For “QVQLVESGGGLVQAGGSLRLSCAASGHIFFYYTMGWYSPAPGKERELVAGITIGGSTNYADSVKGRFTISRDNAKNTVYLQMNSLKPEDTAVYYCNVVKYVYIYSYWEYYYWGQGTQVNVSS”, the “polyreactivity (PSR sort gate)” value was “low polyreactivity”.

With “QVQLVESGGGLVQAGGSLRLSCAASGSILTPNAMGWYRQAPGKERELVATISKGGGRTYYADSVKGRFTISRDNAKNTVYLQMNSLKPEDTAVYYCAADARRNSPGNYWGQGTQVTVSS” the “polyreactivity (PSR sort gate)” value was “high polyreactivity”.

For “QVQLVESGGGLVQAGGSLRLSCAASGITFQWYTMGWYRQAPGKERELVATISSGGSTNYADSVKGRFTISRDNAKNTVYLQMNSLKPEDTPVYYCAAYDYISSTYFLDEYWGQGTQVTVSS”, the “polyreactivity (PSR sort gate)” value was “low polyreactivity”.

In the case of “QVQLVESGGGLVQAGGSLSLSCAASGFTFRWYAMGWYRQAPGKERELVAAISSDDDTSYADSVKGRFTISRDNAKNTVYLQMNSLKPEDTAVYDCAADGYYTLDAYPYGIFWYDYWGQGTQVTVSS”, the “polyreactivity (PSR sort gate)” value is reported as “low polyreactivity”.

For “QVQLVESGGGLVQAGGSLRLICAASGSIFDYNAMGWYRQAPGKERELVAAITSTDSTYADSVKGRFTISRDNAKNTVYLQMNSLKPEDTAVYYCNARYLAWTYYYPYDYWGQGTQVTVSS”, the “polyreactivity (PSR sort gate)” value was “low polyreactivity”.

In the case of “QVQLVESGGGLVQAGGSLRLSCAASVIIFRLYGMGWYRQAPGKEREFVATITWRGGRTNYADSVKGRFTISRDNAKNTVYLQMNSLKPQDTAVYYCAKVVRYARSNEYDSWGQGTQVTVSS”, the “polyreactivity (PSR sort gate)” value is reported as “low polyreactivity”.

With “QVQLVESGGGLVQAGGSLRLSCAASGRIFYRNAMGWYRQAPGKERELVAVITSSSGSTYADSVKGRFTISRDNAKNTVYLQMNSLKPEDTAVYYCAAEEDYIYFYVSMDYWGQGTQVTVSS” the “polyreactivity (PSR sort gate)” value was “low polyreactivity”.

With “QVQLVESGGGLVQAGGSLRLSCAASGIIFRGYAMGWYREAPGKERELVAAIRDRGGSTYYADSVKGRFTISRDNAKNTVYLQMNSLKPEDTAVYYCATENRVYRHPGYDYDYWGQGTQVTVSS” the “polyreactivity (PSR sort gate)” value was “low polyreactivity”.

For “QVQLVESGGGLVQAGGSLRLSCAASGLIFGRNAMGWYRQAPGKERELVAAISWSGGSTYYADSVKGRFTISRDNAKNTVYLEMKSLKPEDTAVYYCYRYRYYGSEDDYWGQCTQVTVSS”, the “polyreactivity (PSR sort gate)” value was “high polyreactivity”.

In the case of “QVQLVESGGGLVQAGGSLRLSCAASGFTFRAYAMGWYRQAPGKERELVAAISSGGGRTYYADSVKGRFTISRDNAKNTVYLQMNSLKPEDTAVYYCAADNYPGTRYDYWGQGTQVTVSS”, the “polyreactivity (PSR sort gate)” value is reported as “high polyreactivity”.

In the case of “QVQLVESCGGLVQAGGSLRLSCAASGRTIASYAMGWYRQAPGKERELVAAITSGGSTYYADSVKGRFTISRDNAMNTVYLQMNSLKPEDTAVYYCARKHAIWRGYDYWGQGTQVTVSS”, the “polyreactivity (PSR sort gate)” value is reported as “low polyreactivity”.

For “QVQLVESGGGLVQAGGSLRLSCAASGFIFYSYAMGWYRQAPGKERELVAAISGSGGSTYYADSVKGRFTISRDNAKNTVYLQMNSLKPEDTAVYYCAAALTFRMDYWGQGTQVTVSS”, the “polyreactivity (PSR sort gate)” value was “high polyreactivity”.

In the case of “QVQLEESGGGLVQAGGSLRLSCAASGSTFQLYAMGWYRPAPGKERELVAGISRDGSTYYADSVKGRFTISRDNAKNTVFLQMNSLKPEDTAVYYCAAKYYGNKRDLYYWGQGTQVTVSS”, the “polyreactivity (PSR sort gate)” value is reported as “low polyreactivity”.

With “QVQLVESGGGLVQAGGSLRLSCAASGNILLFNAMGWYRQAPGKERELVATINQSGGRTYYADSVKGRFTISRDNAKNTVYLQMNSLKPEDTAVYYCAATRRYPPYFHHYDYWGQGTQVTVSS” the “polyreactivity (PSR sort gate)” value was “low polyreactivity”.

For “QVQLVESGGGLVQAGGSLRLSCAASGSIFNKYAMGWYRQAPGKERELVAAISVSGTRTYYADSVKGRFTISRDNAKNTVYLQMNSLKPEDSAVYYCATKFFRTAYEYWGQGTQVTVSS”, the “polyreactivity (PSR sort gate)” value was “high polyreactivity”.

With “QVQLVESGGGLVQAGVSLRLSCAASGFIFYWYVMGWYRHAPGKERELVAGISKNGTNTYYADSVKGRFTISRDNAKNTVYLQMNSLKPEDTAVYYCAAAKCRTKYDYWGQGTQVTVSS” the “polyreactivity (PSR sort gate)” value was “high polyreactivity”.

With “QVQLGESGGGLVQAGGSLRLSCAASGIIFGYYAMGWYRQAPGKERELVAAITWSGGSTYYADSVKGRFTISRDNAKYTVYLQMNSLKPEDTAVYYCAASAYVQPYDYWGQGTQVTVSS” the “polyreactivity (PSR sort gate)” value was “high polyreactivity”.

With “QVQLVESGGGLVQAGGSLRLSCAASGSIFHSYAMGWYRQAPGKETELVASITASGDSTYYADSVKGRFTISRDNAKNTVYLQMNSLKPEDTAVYYCNTQAVYGGGEGGYDYWGQCTQVTVSS” the “polyreactivity (PSR sort gate)” value was “low polyreactivity”.

With “QVQLVESGGGLVQAGGSLRLSCAASGSTFQTYVMGWYRQAPGKERELVAAISSGGSTNYADSVKGRFTISRDNAKNTVYLQMNSLKPEDTAVYYCAKRWPYFRRGKDGYWGQGTQVTVSS” the “polyreactivity (PSR sort gate)” value was “low polyreactivity”.

In the case of “QVQLVESGGGLVQAGGSLRLSCAASGFIFYEYAMGWYRQAPGKERELVARITRSDGSTYYADSVKGRFTISRDNAKNTVYFQMNSLKPEDTAVYYCNVRRAYYRRGPYYSTYYYWGQGTQVTVSS”, the “polyreactivity (PSR sort gate)” value is reported as “high polyreactivity”.

For “QVQLVESGRGLVQAGGSLRLSCAASGRIFYNYAMGGYRQAPGKERELVAAISSSGGSTYFADSVKGRFTISRDNAKNTVYLQMNSLKPEDTAVYYCAVRKQYSGRYYRAYDYWGQGTQVTVSW”, the “polyreactivity (PSR sort gate)” value was “high polyreactivity”.

For “QVQLVESGGGLVQAGGSLRLSCAASGFIFYSYAMGWYRQAPGKEREFVASICGGTGSTYYADSVKGRFTISRDNAKNTVYLQMNSLIPEDTAVYYCNARIVHSFRYDYWGQGTQVTVSS”, the “polyreactivity (PSR sort gate)” value was “low polyreactivity”.

In the case of “QVQLVESGGGLVQAGGSLRLSCAASGRTFGYNAMGWYSQAPGKERELVAAISWSGGRTYYADSVKGRFTISRDNAKNTVYLQMNSLKPEDTAVYYCAALPSVTNRYYIYGYWGQGTQVTGSS”, the “polyreactivity (PSR sort gate)” value is reported as “high polyreactivity”.

In the case of “QVQIVESGGGLVQAGGSLRLSCAASGFTFPHNAMGWYRQAPGKERELVAAITSSGGSTYYADSVKGRFTISRDNAKNPVYLEMNSLKPEDTAVYYCAAYWAYGGYESWGQGTQVTVSS”, the “polyreactivity (PSR sort gate)” value is reported as “high polyreactivity”.

In the case of “QVQLVESGGGLVQAGGSLRLSCAASGLIFFYYTMGWYRQAPGKERELVAAISQSGGRTYYADSVKGRFTISRDNAKNTVYLQMNSLKPEDTAVYYCAAAVRYRGDEFDYWGQGTQVTVSS”, the “polyreactivity (PSR sort gate)” value is reported as “low polyreactivity”.

With “QVQLVESGGGLVQAGGSLRLSCAASGIIFLSYAMGWYRQAPGKERELVAAIRSRGDSTYYADSVKGRFTISRDNAKNTVYLQMNSLKPEDTAVYYCNARQRRYPYGYWGQGTQVTVSS” the “polyreactivity (PSR sort gate)” value was “high polyreactivity”.

With “QVQLVESGGGLVQAGGSLRLSCAASGSIFYRNAMGWYRQAPGKERELVAAISWSGASTYYADSVKGRFTISRDNAKNTVFLQLNSLKPEDTAVYYCATDDFWNVKFYAYYPEFDYWGQGTQVTVSS” the “polyreactivity (PSR sort gate)” value was “low polyreactivity”.

With “QVQLVESGGGIVQAGGSLRLSCAASGFTFVNNAIGWYRQAPGKERELVASITRRGGRTYYADSVKGRFTISRDNAKNTVYLQMNSLKPEDTAVYYCAVQGYGWGPLGYAEYDYWGQGTQVTVSS” the “polyreactivity (PSR sort gate)” value was “high polyreactivity”.
